Reference: patent publication US8980614B2, “Staphylococcus haemolyticus prophage φSH2 endolysin is lytic for Staphylococcus aureus” (The United States of America, as represented by The …, priority 2012, dated 2015)

Legend:
S. aureus 305 = assay: Plate lysis assay; format: cell-based; conditions: 100 pmoles and 2-fold serial dilutions spotted on bacterial lawns
Procedure: (§1) Purified proteins (100 pmoles in a 10 μl volume and five two-fold serial dilutions thereof) were spotted onto a freshly spread lawn of log phase staphylococcal cells (OD600 nm of 0.4-0.6, diluted ¼ before plating) that had air dried for 15 min on gridded TSA (tryptic soy agar) plates. The spotted plates were air dried for 10 min in a laminar flow hood and incubated overnight at 37° C. Cleared spots indicating cell lysis were scored within 24 hours of plating the cells.
(§2) The φSH2 full length enzyme and the A1 construct were further tested in plate lysis assays against a set of different staphylococcal strains, including MRSA strains (NRS 382-385), mastitis isolates (305, Tanji 1-26), and coagulase negative staphylococci (non S. aureus) (Table 2). The same molar amounts of both proteins (ranging from 100 pmoles to 3.125 pmoles, in a volume of 10 ul) were spotted onto lawns of mid log phase cells of the respective strains, and the plates were analyzed for lysis zones the next day.

S. aureus NRS 382 = assay: Plate lysis assay; format: cell-based; conditions: S. aureus NRS 382 (MRSA); 100 pmoles and 2-fold serial dilutions spotted on bacterial lawns
Procedure: as §1, §2

S. aureus NRS 383 = assay: Plate lysis assay; format: cell-based; conditions: S. aureus NRS 383 (MRSA); 100 pmoles and 2-fold serial dilutions spotted on bacterial lawns
Procedure: as §1, §2

S. aureus NRS 384 = assay: Plate lysis assay; format: cell-based; conditions: S. aureus NRS 384 (MRSA); 100 pmoles and 2-fold serial dilutions spotted on bacterial lawns
Procedure: as §1, §2

S. aureus NRS 385 = assay: Plate lysis assay; format: cell-based; conditions: S. aureus NRS 385 (MRSA); 100 pmoles and 2-fold serial dilutions spotted on bacterial lawns
Procedure: as §1, §2

S. aureus Newman = assay: Plate lysis assay; format: cell-based
Procedure: as §1, §2

S. aureus Tanji 19 = assay: Plate lysis assay; format: cell-based; conditions: 100 pmoles and 2-fold serial dilutions spotted on bacterial lawns
Procedure: as §1, §2

S. aureus Tanji 1 = assay: Plate lysis assay; format: cell-based; conditions: 100 pmoles and 2-fold serial dilutions spotted on bacterial lawns
Procedure: as §1, §2

S. aureus Tanji 20 = assay: Plate lysis assay; format: cell-based; conditions: 100 pmoles and 2-fold serial dilutions spotted on bacterial lawns
Procedure: as §1, §2

S. aureus Tanji 26 = assay: Plate lysis assay; format: cell-based; conditions: 100 pmoles and 2-fold serial dilutions spotted on bacterial lawns
Procedure: as §1, §2

S. chromogenes = assay: Plate lysis assay; format: cell-based; conditions: 100 pmoles and 2-fold serial dilutions spotted on bacterial lawns
Procedure: as §1, §2

S. epidermidis = assay: Plate lysis assay; format: cell-based; conditions: 100 pmoles and 2-fold serial dilutions spotted on bacterial lawns
Procedure: as §1, §2

S. hyicus = assay: Plate lysis assay; format: cell-based
Procedure: as §1, §2

S. simulans = assay: Plate lysis assay; format: cell-based
Procedure: as §1, §2

S. warneri = assay: Plate lysis assay; format: cell-based; conditions: 100 pmoles and 2-fold serial dilutions spotted on bacterial lawns
Procedure: as §1, §2

S. xylocus = assay: Plate lysis assay; format: cell-based; conditions: 100 pmoles and 2-fold serial dilutions spotted on bacterial lawns
Procedure: as §1, §2

S. aureus Newman cells [1] = assay: Turbidity reduction assay; format: cell-based, Staphylococcus aureus
Procedure: The turbidity reduction assay measures a decrease in optical density of a bacterial suspension due to lysis of the target bacteria by a lytic protein. The assays were performed in a 96-well dish format essentially as described previously (Donovan et al. 2006, supra). In order to reduce the variability of the assay, frozen stocks of S. aureus Newman substrate cells were prepared in a large batch as described by Becker et al. (2009b, supra). Immediately prior to the assay, the frozen cells were thawed, washed, and resuspended in the desired assay buffer such that when 100 μl of cell suspension were added to 100 μl of lysis buffer+/−protein, the final suspension has an OD600nm of ˜1.0.
Protein constructs were assayed at a concentration of 1 μM, and the assay was performed at room temperature, measuring the OD600nm at 1 min intervals for 45 min. Buffer without enzyme served as the control. The steepest slopes of the resulting lysis curves, which correspond to the lytic activities of the proteins, were determined by a sliding window over each group of three consecutive time points for the entire 45 min period. Specific activities were expressed as ΔOD600nm/min/μM, and the “no enzyme” control value was subtracted from each experimental value.
In order to determine the effect of salt concentration on lytic activity, turbidity reduction assays were performed in 10 mM Tris buffers at pH 7.5 with varying NaCl concentrations between 0 mM and 600 mM. Accordingly, the influence of pH was determined by using a series of different buffers with pH values ranging from 3.5 to 10.0. Citrate buffers were used for pH 3.5, 4.5, 5.5, and 6.0, MOPS buffers for pH 6.5, 7.0, and 7.5, Tris buffers for pH 8.0 and 9.0, and Carbonate/bicarbonate buffer for pH 10.0. The concentration of the buffer substance in all buffers used was 20 mM, and the NaCl concentration was 200 mM. To test the effect of bivalent metal ions, assays were performed in 10 mM Tris, 200 mM NaCl, pH 7.5 supplemented with MgCl2, MnCl2, or CaCl2 at different concentrations (0.1 mM, 1 mM, 10 mM), buffer without metal ions serving as control.

S. aureus Newman cells [2] = assay: Zymogram with S. aureus Newman cells embedded in the gel; format: cell-based; conditions: 5 μg protein
Procedure: All purified proteins were analyzed with 15% SDS-PAGE, using a Kaleidoscope Precision Plus Protein Standard (BioRad, Hercules, Calif.). For zymograms, a 300 mL culture volume equivalent of live mid-log phase (OD600nm=0.4-0.6) cells of S. aureus strain Newman was embedded in the gel during polymerization. The protein samples were boiled in Laemmli sample buffer (BioRad) with β-mercaptoethanol, and electrophoresed with identical buffers and voltage for one hour in both the SDS-PAGE and the zymogram using a Mini-Protean TETRA gel system (BioRad). SDS gels were Coomassie stained and zymograms were washed in excess water and further incubated in deionized water for 60 min, followed by incubation in 10 mM Tris, pH 8.0 with 150 mM or 300 mM NaCl for 80 min. Areas of clearing in the turbid zymogram gel indicate a lytic protein in the gel.

MRSA strain NRS382 = assay: Control of systemic MRSA infection in a murine model; format: in vivo, Balb/c mice
[3] = system: staphylococcal strains (MRSA strains, mastitis isolates, coagulase negative staphylococci); assay: Plate lysis assay, whole set of strains; format: cell-based, Staphylococcus; conditions: 100 to 3.125 pmoles spotted
Procedure: as §1, §2

[4] = 100 pmoles and 2-fold serial dilutions spotted on bacterial lawns

B1: ΦSH2 full length: Full length C-terminally 6×His-tagged Staphylococcus haemolyticus φSH2 prophage endolysin (1-493), SEQ ID NO:2 (protein)
chain: MKTQAEINKRLDAYRKGTVDSPYRVKVWTSYDNRFYPMEPGCIDVDKSFHAQCADLTIDYILWLTDNEFRIRGNAKDAINPKKNKLPEGWKIVLNRPSTVPRKGWIAVFTDGTYWEYGHIGMVYDGGNTSRFQILEQNWNGWANKKPSLRWDNYYGLTHFIVPPVAKENKAVSSSKQQAPKQKVKKASTKKALPKITKHITGYNMDKRGYNPKGVVLHNDAGGMNYKQYYNNLVNANYDRLARGIAHAYVDRTGIWEAIDESRIAWHVADGTRPGSGNHDFYGIEVNQSLRASDKEFLENEQAVFQFAAEKLKKWGLPANRNTVRLHNEFSQTSCPHRSMVLHTGLDPLYHSITEHARLKLKDYFIKQIRAYMDGKKPTSKVVVSKPGSASTPATRKDANGYRENPHGTLYKEEHATFTANANIITRYVGPFTNMPQAGILKAGQTIIYDEVMKQDGYIWVGYTAYNGKRVYLPVRKWNRETDSVGKLWGVISLEHHHHHH
modifications: C-terminal 6xHis tag; Bacteriophage Phi SH2
**Q.** For B1, which “Lytic activity (lowest amount of protein producing a lysis zone)” value (S. aureus 305) is on record?
**A.** ++ (++: 50 pmoles)

**Q.** And the “Lytic activity (lowest amount of protein producing a lysis zone)” value (S. aureus NRS 382)?
**A.** − (‘−’ means that no lysis was observed at the highest amount tested (100 pmoles))

**Q.** And the “Lytic activity (lowest amount of protein producing a lysis zone)” value (S. aureus NRS 383)?
**A.** − (‘−’ means that no lysis was observed at the highest amount tested (100 pmoles))

**Q.** What about the “Lytic activity (lowest amount of protein producing a lysis zone)” value (S. aureus NRS 384) of the same molecule?
**A.** + (+: 100 pmoles)

**Q.** And the “Lytic activity (lowest amount of protein producing a lysis zone)” value (S. aureus NRS 385)?
**A.** − (‘−’ means that no lysis was observed at the highest amount tested (100 pmoles))

**Q.** What about the “Lytic activity (lowest amount of protein producing a lysis zone)” value (S. aureus Newman; [4]) of the same molecule?
**A.** − (‘−’ means that no lysis was observed at the highest amount tested (100 pmoles))

**Q.** What about the “amount of protein causing a lysis zone” value (S. aureus Newman; 100 to 3.125 pmoles spotted) of the same molecule?
**A.** not lysed by the highest amount

**Q.** And the “Lytic activity (lowest amount of protein producing a lysis zone)” value (S. aureus Tanji 19)?
**A.** ++ (++: 50 pmoles)

**Q.** And the “Lytic activity (lowest amount of protein producing a lysis zone)” value (S. aureus Tanji 1)?
**A.** ++ (++: 50 pmoles)

**Q.** What about the “Lytic activity (lowest amount of protein producing a lysis zone)” value (S. aureus Tanji 20) of the same molecule?
**A.** ++ (++: 50 pmoles)

**Q.** And the “Lytic activity (lowest amount of protein producing a lysis zone)” value (S. aureus Tanji 26)?
**A.** + (+: 100 pmoles)

**Q.** And the “Lytic activity (lowest amount of protein producing a lysis zone)” value (S. chromogenes)?
**A.** +++ (+++: 25 pmoles)

**Q.** And the “Lytic activity (lowest amount of protein producing a lysis zone)” value (S. epidermidis)?
**A.** − (‘−’ means that no lysis was observed at the highest amount tested (100 pmoles))

**Q.** And the “Lytic activity (lowest amount of protein producing a lysis zone)” value (S. hyicus; [4])?
**A.** ++++++ (++++++: ≦3.125 pmoles)

**Q.** What about the “amount of protein causing a lysis zone” value (S. hyicus; 100 to 3.125 pmoles spotted) of the same molecule?
**A.** lowest amount tested

**Q.** What about the “Lytic activity (lowest amount of protein producing a lysis zone)” value (S. simulans; [4]) of the same molecule?
**A.** + (+: 100 pmoles)

**Q.** And the “amount of protein causing a lysis zone” value (S. simulans; 100 to 3.125 pmoles spotted)?
**A.** 100 pmol

**Q.** And the “Lytic activity (lowest amount of protein producing a lysis zone)” value (S. warneri)?
**A.** +++ (+++: 25 pmoles)

**Q.** What about the “Lytic activity (lowest amount of protein producing a lysis zone)” value (S. xylocus) of the same molecule?
**A.** +++ (+++: 25 pmoles)

**Q.** What about the “NaCl concentration of optimum lytic activity” value (S. aureus Newman cells [1]; 1 μM protein, 10 mM Tris pH 7.5, NaCl 0-600 mM) of the same molecule?
**A.** 300 mM

**Q.** And the “lytic activity in turbidity reduction assays (in words)” value (S. aureus Newman cells [1]; 1 μM protein, different NaCl concentrations)?
**A.** moderate lytic activity

**Q.** What about the “increase of lytic activity by Ca2+” value (S. aureus Newman cells [1]; 10 mM CaCl2, relative to 0 mM, 10 mM Tris, 200 mM NaCl, pH 7.5) of the same molecule?
**A.** three-fold

**Q.** And the “effect of Mg2+ on lytic activity” value (S. aureus Newman cells [1]; 0.1-10 mM MgCl2, 10 mM Tris, 200 mM NaCl, pH 7.5)?
**A.** not significantly alter

**Q.** And the “effect of Mn2+ on lytic activity” value (S. aureus Newman cells [1]; 0.1-10 mM MnCl2, 10 mM Tris, 200 mM NaCl, pH 7.5)?
**A.** slightly inhibitory effect

**Q.** What about the lysis in zymogram (S. aureus Newman cells [2]; after incubation in deionized water for 60 min) of the same molecule?
**A.** faint zones of lysis

**Q.** And the lysis in zymogram (S. aureus Newman cells [2]; water 60 min, then 10 mM Tris, 150 mM NaCl, pH 8.0 up to 80 min)?
**A.** considerably weaker

**Q.** What about the lysis in zymogram (S. aureus Newman cells [2]; water 60 min, then 10 mM Tris, 300 mM NaCl, pH 8.0 for 80 min) of the same molecule?
**A.** pronounced lytic band

**Q.** What about the “% Survival” value (MRSA strain NRS382; 0 hours, mice infected i.p. with MRSA NRS382, treated 30 min post infection (φSH2 200 μg/mouse i.p.; Vancomycin 375 μg/mouse s.c.; Oxacillin 1250 μg/mouse s.c.)) of the same molecule?
**A.** 100%

**Q.** And the “% Survival” value (MRSA strain NRS382; 4 hours, same infection and treatment)?
**A.** 100%

**Q.** And the “% Survival” value (MRSA strain NRS382; 8 hours, same infection and treatment)?
**A.** 100%

**Q.** And the “% Survival” value (MRSA strain NRS382; 12 hours, same infection and treatment)?
**A.** 100%

**Q.** What about the “% Survival” value (MRSA strain NRS382; 16 hours, same infection and treatment) of the same molecule?
**A.** 100%

**Q.** And the “% Survival” value (MRSA strain NRS382; 20 hours, same infection and treatment)?
**A.** 100%

**Q.** What about the “% Survival” value (MRSA strain NRS382; 24 hours, same infection and treatment) of the same molecule?
**A.** 100%

**Q.** And the “% Survival” value (MRSA strain NRS382; 28 hours, same infection and treatment)?
**A.** 100%

**Q.** What about the “% Survival” value (MRSA strain NRS382; 32 hours, same infection and treatment) of the same molecule?
**A.** 100%

**Q.** What about the “% Survival” value (MRSA strain NRS382; 36 hours, same infection and treatment) of the same molecule?
**A.** 100%

**Q.** What about the “% Survival” value (MRSA strain NRS382; 40 hours, same infection and treatment) of the same molecule?
**A.** 100%

**Q.** And the “% Survival” value (MRSA strain NRS382; 44 hours, same infection and treatment)?
**A.** 100%

**Q.** And the “% Survival” value (MRSA strain NRS382; 48 hours (end of the experiment), same infection and treatment)?
**A.** 100%

**Q.** What about the “strains against which lytic activity was displayed” value ([3]; 16 strains tested) of the same molecule?
**A.** 11 out of 16

**Q.** And the MRSA strains lysed ([3]; four MRSA strains (NRS 382-385))?
**A.** one out of four
